Assay results from IntAct's records for PubMed 32296183.

B1: Succinate--CoA ligase [ADP-forming] subunit beta, mitochondrial (Homo sapiens), Q9P2R7 (parent)
chain: MAASMFYGRLVAVATLRNHRPRTAQRAAAQVLGSSGLFNNHGLQVQQQQQRNLSLHEYMSMELLQEAGVSVPKGYVAKSPDEAYAIAKKLGSKDVVIKAQVLAGGRGKGTFESGLKGGVKIVFSPEEAKAVSSQMIGKKLFTKQTGEKGRICNQVLVCERKYPRREYYFAITMERSFQGPVLIGSSHGGVNIEDVAAESPEAIIKEPIDIEEGIKKEQALQLAQKMGFPPNIVESAAENMVKLYSLFLKYDATMIEINPMVEDSDGAVLCMDAKINFDSNSAYRQKKIFDLQDWTQEDERDKDAAKANLNYIGLDGNIGCLVNGAGLAMATMDIIKLHGGTPANFLDVGGGATVHQVTEAFKLITSDKKVLAILVNIFGGIMRCDVIAQGIVMAVKDLEIKIPVVVRLQGTRVDDAKALIADSGLKILACDDLDEAARMVVKLSEIVTLAKQAHVDVKFQLPI
B2: Catenin alpha-3 (Homo sapiens), Q9UI47-2 (parent)
chain: MSAETPITLNIDPQDLQVQTFTVEKLLEPLIIQVTTLVNCPQNPSSRKKGRSKRASVLLASVEEATWNLLDKGEKIAQEATVLKDELTASLEEVRKESEALKVSAERFTDDPCFLPKREAVVQAARALLAAVTRLLILADMIDVMCLLQHVSAFQRTFESLKNVANKSDLQKTYQKLGKELENLDYLAFKRQQDLKSPNQRDEIAGARASLKENSPLLHSICSACLEHSDVASLKASKDTVCEEIQNALNVISNASQGIQNMTTPPEPQAATLGSALDELENLIVLNPLTVTEEEIRPSLEKRLEAIISGAALLADSSCTRDLHRERIIAECNAIRQALQDLLSEYMNNAGKKERSNTLNIALDNMCKKTRDLRRQLRKAIIDHVSDSFLDTTVPLLVLIEAAKNGREKEIKEYAAIFHEHTSRLVEVANLACSMSTNEDGIKIVKIAANHLETLCPQIINAALALAARPKSQAVKNTMEMYKRTWENHIHVLTEAVDDITSIDDFLAVSGMFLFF
partner: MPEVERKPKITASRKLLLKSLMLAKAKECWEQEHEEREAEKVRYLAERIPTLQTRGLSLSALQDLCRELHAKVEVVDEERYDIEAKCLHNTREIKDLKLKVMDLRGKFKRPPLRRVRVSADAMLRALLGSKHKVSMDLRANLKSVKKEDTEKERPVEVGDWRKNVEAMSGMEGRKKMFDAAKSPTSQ

Variants of: B1
Settings: with sc23a_human SEC23A

Row | Variant | effect of a mutation on the interaction
1 | MAASMFYGRLVAVATLRNHRPRTAQRAAAQVLGSSGLFNNHGLQVQQQQQRNLSLHEYMSMELLQEAGVSVPKGYVAKSPDEAYAIAKKLGSKDVVIKAQVLAGGRGKGTFESGLKGRVKIVFSPEEAKAVSSQMIGKKLFTKQTGEKGRICNQVLVCERKYPRREYYFAITMERSFQGPVLIGSSHGGVNIEDVAAESPEAIIKEPIDIEEGIKKEQALQLAQKMGFPPNIVESAAENMVKLYSLFLKYDATMIEINPMVEDSDGAVLCMDAKINFDSNSAYRQKKIFDLQDWTQEDERDKDAAKANLNYIGLDGNIGCLVNGAGLAMATMDIIKLHGGTPANFLDVGGGATVHQVTEAFKLITSDKKVLAILVNIFGGIMRCDVIAQGIVMAVKDLEIKIPVVVRLQGTRVDDAKALIADSGLKILACDDLDEAARMVVKLSEIVTLAKQAHVDVKFQLPI [G118R] | disrupting interaction strength
2 | MAASMFYGRLVAVATLRNHRPRTAQRAAAQVLGSSGLFNNHGLQVQQQQQRNLSLHEYMSMELLQEAGVSVPKGYVAKSPDEAYAIAKKLGSKDVVIKAQVLAGGRGKGTFESGLKGGVKIVFSPEEAKAVSSQMIGKKLFTKQTGEKGRICNQVLVCERKYPRREYYFAITMERSFQGPVLIGSSHGGVNIEDVAAESPEAIIKEPIDIEEGIKKEQALQLAQKMGFPPNIVESAAENMVKLYSLFLKYNATMIEINPMVEDSDGAVLCMDAKINFDSNSAYRQKKIFDLQDWTQEDERDKDAAKANLNYIGLDGNIGCLVNGAGLAMATMDIIKLHGGTPANFLDVGGGATVHQVTEAFKLITSDKKVLAILVNIFGGIMRCDVIAQGIVMAVKDLEIKIPVVVRLQGTRVDDAKALIADSGLKILACDDLDEAARMVVKLSEIVTLAKQAHVDVKFQLPI [D251N] | disrupting interaction strength

Variants of: B1
Settings: with mal2_human MAL2, Q969L2
mal2_human MAL2, Q969L2, sequence (Q969L2 whole entry): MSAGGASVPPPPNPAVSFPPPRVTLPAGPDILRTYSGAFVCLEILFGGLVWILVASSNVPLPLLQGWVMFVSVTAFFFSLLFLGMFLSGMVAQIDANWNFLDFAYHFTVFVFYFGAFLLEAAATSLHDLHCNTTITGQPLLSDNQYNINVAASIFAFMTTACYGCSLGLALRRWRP

Row | Variant | effect of a mutation on the interaction
3 | MAASMFYGRLVAVATLRNHRPRTAQRAAAQVLGSSGLFNNHGLQVQQQQQRNLSLHEYMSMELLQEAGVSVPKGYVAKSPDEAYAIAKKLGSKDVVIKAQVLAGGRGKGTFESGLKGRVKIVFSPEEAKAVSSQMIGKKLFTKQTGEKGRICNQVLVCERKYPRREYYFAITMERSFQGPVLIGSSHGGVNIEDVAAESPEAIIKEPIDIEEGIKKEQALQLAQKMGFPPNIVESAAENMVKLYSLFLKYDATMIEINPMVEDSDGAVLCMDAKINFDSNSAYRQKKIFDLQDWTQEDERDKDAAKANLNYIGLDGNIGCLVNGAGLAMATMDIIKLHGGTPANFLDVGGGATVHQVTEAFKLITSDKKVLAILVNIFGGIMRCDVIAQGIVMAVKDLEIKIPVVVRLQGTRVDDAKALIADSGLKILACDDLDEAARMVVKLSEIVTLAKQAHVDVKFQLPI [G118R] | disrupting interaction strength
4 | MAASMFYGRLVAVATLRNHRPRTAQRAAAQVLGSSGLFNNHGLQVQQQQQRNLSLHEYMSMELLQEAGVSVPKGYVAKSPDEAYAIAKKLGSKDVVIKAQVLAGGRGKGTFESGLKGGVKIVFSPEEAKAVSSQMIGKKLFTKQTGEKGRICNQVLVCERKYPRREYYFAITMERSFQGPVLIGSSHGGVNIEDVAAESPEAIIKEPIDIEEGIKKEQALQLAQKMGFPPNIVESAAENMVKLYSLFLKYNATMIEINPMVEDSDGAVLCMDAKINFDSNSAYRQKKIFDLQDWTQEDERDKDAAKANLNYIGLDGNIGCLVNGAGLAMATMDIIKLHGGTPANFLDVGGGATVHQVTEAFKLITSDKKVLAILVNIFGGIMRCDVIAQGIVMAVKDLEIKIPVVVRLQGTRVDDAKALIADSGLKILACDDLDEAARMVVKLSEIVTLAKQAHVDVKFQLPI [D251N] | disrupting interaction strength

Variants of: B1
Settings: with ar6p1_human ARL6IP1, Q15041
ar6p1_human ARL6IP1, Q15041, sequence (Q15041 whole entry): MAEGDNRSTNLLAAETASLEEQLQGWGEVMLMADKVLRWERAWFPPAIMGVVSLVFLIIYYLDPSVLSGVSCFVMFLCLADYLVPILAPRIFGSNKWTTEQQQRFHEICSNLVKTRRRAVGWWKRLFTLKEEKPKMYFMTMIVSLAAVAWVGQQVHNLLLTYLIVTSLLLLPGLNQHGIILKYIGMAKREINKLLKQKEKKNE

Row | Variant | effect of a mutation on the interaction
5 | MAASMFYGRLVAVATLRNHRPRTAQRAAAQVLGSSGLFNNHGLQVQQQQQRNLSLHEYMSMELLQEAGVSVPKGYVAKSPDEAYAIAKKLGSKDVVIKAQVLAGGRGKGTFESGLKGRVKIVFSPEEAKAVSSQMIGKKLFTKQTGEKGRICNQVLVCERKYPRREYYFAITMERSFQGPVLIGSSHGGVNIEDVAAESPEAIIKEPIDIEEGIKKEQALQLAQKMGFPPNIVESAAENMVKLYSLFLKYDATMIEINPMVEDSDGAVLCMDAKINFDSNSAYRQKKIFDLQDWTQEDERDKDAAKANLNYIGLDGNIGCLVNGAGLAMATMDIIKLHGGTPANFLDVGGGATVHQVTEAFKLITSDKKVLAILVNIFGGIMRCDVIAQGIVMAVKDLEIKIPVVVRLQGTRVDDAKALIADSGLKILACDDLDEAARMVVKLSEIVTLAKQAHVDVKFQLPI [G118R] | disrupting interaction strength
6 | MAASMFYGRLVAVATLRNHRPRTAQRAAAQVLGSSGLFNNHGLQVQQQQQRNLSLHEYMSMELLQEAGVSVPKGYVAKSPDEAYAIAKKLGSKDVVIKAQVLAGGRGKGTFESGLKGGVKIVFSPEEAKAVSSQMIGKKLFTKQTGEKGRICNQVLVCERKYPRREYYFAITMERSFQGPVLIGSSHGGVNIEDVAAESPEAIIKEPIDIEEGIKKEQALQLAQKMGFPPNIVESAAENMVKLYSLFLKYNATMIEINPMVEDSDGAVLCMDAKINFDSNSAYRQKKIFDLQDWTQEDERDKDAAKANLNYIGLDGNIGCLVNGAGLAMATMDIIKLHGGTPANFLDVGGGATVHQVTEAFKLITSDKKVLAILVNIFGGIMRCDVIAQGIVMAVKDLEIKIPVVVRLQGTRVDDAKALIADSGLKILACDDLDEAARMVVKLSEIVTLAKQAHVDVKFQLPI [D251N] | disrupting interaction strength

Variants of: B2
Settings: with tnni1_human TNNI1, P19237

Row | Variant | effect of a mutation on the interaction
7 | MSAETPITLNIDPQDLQVQTFTVEKLLEPLIIQVTTLVNCPQNPSSRKKGRSKRASVLLASVEEATWNLLDKGEKIAQEATVLKDELTASLEEDRKESEALKVSAERFTDDPCFLPKREAVVQAARALLAAVTRLLILADMIDVMCLLQHVSAFQRTFESLKNVANKSDLQKTYQKLGKELENLDYLAFKRQQDLKSPNQRDEIAGARASLKENSPLLHSICSACLEHSDVASLKASKDTVCEEIQNALNVISNASQGIQNMTTPPEPQAATLGSALDELENLIVLNPLTVTEEEIRPSLEKRLEAIISGAALLADSSCTRDLHRERIIAECNAIRQALQDLLSEYMNNAGKKERSNTLNIALDNMCKKTRDLRRQLRKAIIDHVSDSFLDTTVPLLVLIEAAKNGREKEIKEYAAIFHEHTSRLVEVANLACSMSTNEDGIKIVKIAANHLETLCPQIINAALALAARPKSQAVKNTMEMYKRTWENHIHVLTEAVDDITSIDDFLAVSGMFLFF [V94D] | with no effect
